Molecular target: recombinant HLA-E-His protein (human) (UniProt P13747)
Assay: ELISA: the chimeric protein itself was coated in a 1:3 titration (the x axis is its coating concentration), HLA-E-His (Novus NBP2-47435PEP) was added, detected with Anti-6x-His-HRP (Abcam Ab1187)

Row | EC50 (read off the curve) [µg/mL] | Substance
1 | 6 | hSLAMF6-Fc-NKG2A chimeric protein (from UniProt Q96DU3 22-226; P26715 94-233) (Fc fusion)
2 | 5 | hTGFBR2-Fc-NKG2A chimeric protein (Fc fusion)
